We go through one molecule from US20230030950A1 (UNIVERSITY OF QUEENSLAND, published 2023).

The experiment deals with T1, Aβ1-42 fibrils (UniProt P05067 672-713).
T1 construct: domain: Aβ1-42; Aggregated (fibrillar) form coated on the ELISA plate; also called fibrillar amyloid-β42; fibrillar Aβ42
Kind of experiment: direct-binding ELISA; plate coated with Aβ1-42 fibrils, serial dilutions of antibody, anti-mouse HRP detection. On the procedure: A131-42 fibrils were generated by incubating 0.1 mM A131-42 (JPT Peptide Technologies, Germany) in 10 mM HCl for 3 d at 37° C. A MaxiSorp ELISA plate was coated with […] Aβ₁₋₄₂ fibrils in 0.1M sodium bicarbonate buffer and then blocked with 1% bovine serum albumin.
For orientation: ELISA stands for enzyme-linked immunosorbent assay.

T1 sequence (P05067 672-713 limits assumed): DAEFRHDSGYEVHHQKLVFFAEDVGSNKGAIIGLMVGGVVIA

B1: 6E10 antibody (antibody, V domains shown)
VH: EVQLQQSGAELVKPGASVKLCTASGFNIKDTYIHWVKQRPEQGLEWIGRFDPVNVNTRYDSRFRGKATITSDASSNTAYLHLNSLTSEDTAVYYCSRSYYNGRRRFTYWGQGTLVTVSA
VL: DIVMTQSPSSLTVTAGEKVALTCKASQSLLSSGNQKNYLTWYQQKPGQPPKLLIYWASIRESGVPDRFTGSGSGTFFTLTISSVQAEDLAVYYCQNDYNYPFTFGSGTKLEIK
What is called EC50 is the concentration that produces a half-maximal response. A lower EC50 goes with greater potency. The molecule B1 had an EC50 of 1.18 nM.
